From patent publication US20150024411A1

Columns and labels:
[1] = biological target: human CD8 on CD8+ T cells of PBMC or whole blood (human) (UniProt P01732); assay: cell affinity chromatography: Fab on Strep-Tactin Sephadex-50, human PBMC, flow cytometry of start and flow-through
[2] = biological target: human CD8 on CD8+ T cells of PBMC or whole blood (human) (UniProt P01732); assay: Cell affinity chromatography on Strep-Tactin agarose functionalized with the anti-CD8 Fab, human PBMC; starting sample 24,1% CD8+ (a) [b]
[3] = biological target: human CD8 on CD8+ T cells of PBMC or whole blood (human) (UniProt P01732); assay: Cell affinity chromatography on Strep-Tactin agarose functionalized with the anti-CD8 Fab, human PBMC; starting sample 24,1% CD8+ (a) [c]
[4] = biological target: human CD8 on CD8+ T cells of PBMC or whole blood (human) (UniProt P01732); assay: cell affinity chromatography: PBMC pre-incubated with Fab, Superflow Strep-Tactin column, FACS of start and wash fractions
[5] = biological target: human CD8 on CD8+ T cells of PBMC or whole blood (human) (UniProt P01732); assay: Cell affinity chromatography on Strep-Tactin agarose functionalized with the anti-CD8 Fab, human whole blood; starting sample 0,041% CD8+ (a) [c]
[6] = biological target: human CD8 on CD8+ T cells of PBMC or whole blood (human) (UniProt P01732); assay: Cell affinity chromatography on Strep-Tactin agarose functionalized with the anti-CD8 Fab, human whole blood; starting sample 0,041% CD8+ (a) [b]
[7] = biological target: human CD8 on CD8+ T cells of PBMC or whole blood (human) (UniProt P01732); assay: Flow cytometry of PBMC fractions from a Sephadex G50/Strep-Tactin column loaded with the CD8 Fab; the same marker reads 28 before selection (diagram A)
[8] = biological target: murine CD4 on splenocytes (murine) (UniProt P06332); assay: Pipette tip cell affinity chromatography on Strep-Tactin agarose functionalized with the GK1.5 Fab, murine splenocytes; starting sample 21,7% CD4+ (a) [b]
[9] = biological target: murine CD4 on splenocytes (murine) (UniProt P06332); assay: Pipette tip cell affinity chromatography on Strep-Tactin agarose functionalized with the GK1.5 Fab, murine splenocytes; starting sample 19,6% CD3+CD4+ (a) [c]
[10] = biological target: murine CD4 on splenocytes (murine) (UniProt P06332); assay: Pipette tip cell affinity chromatography on Strep-Tactin agarose functionalized with the GK1.5 Fab, murine splenocytes; starting sample 19,6% CD3+CD4+ (a) [b]
[11] = biological target: murine CD4 on splenocytes (murine) (UniProt P06332); assay: Pipette tip cell affinity chromatography on Strep-Tactin agarose functionalized with the GK1.5 Fab, murine splenocytes; starting sample 21,7% CD4+ (a) [c]
[12] = biological target: human CD4 on CD4+ cells of PBMC or whole blood (human) (UniProt P01730); assay: Pipette tip cell affinity chromatography on Strep-Tactin agarose functionalized with the m13B8.2 Fab, human PBMC; starting sample 52,3% CD4+ (a) [b]
[13] = biological target: human CD4 on CD4+ cells of PBMC or whole blood (human) (UniProt P01730); assay: Pipette tip cell affinity chromatography on Strep-Tactin agarose functionalized with the m13B8.2 Fab, human PBMC; starting sample 52,3% CD4+ (a) [c]
[14] = biological target: human CD4 on CD4+ cells of PBMC or whole blood (human) (UniProt P01730); assay: Pipette tip cell affinity chromatography on Strep-Tactin agarose functionalized with the m13B8.2 Fab, human whole blood; starting sample 1,20% CD4+ (a) [b]
[15] = biological target: human CD4 on CD4+ cells of PBMC or whole blood (human) (UniProt P01730); assay: Pipette tip cell affinity chromatography on Strep-Tactin agarose functionalized with the m13B8.2 Fab, human whole blood; starting sample 1,20% CD4+ (a) [c]

Chain of UniProt P06332 (P06332 27-457): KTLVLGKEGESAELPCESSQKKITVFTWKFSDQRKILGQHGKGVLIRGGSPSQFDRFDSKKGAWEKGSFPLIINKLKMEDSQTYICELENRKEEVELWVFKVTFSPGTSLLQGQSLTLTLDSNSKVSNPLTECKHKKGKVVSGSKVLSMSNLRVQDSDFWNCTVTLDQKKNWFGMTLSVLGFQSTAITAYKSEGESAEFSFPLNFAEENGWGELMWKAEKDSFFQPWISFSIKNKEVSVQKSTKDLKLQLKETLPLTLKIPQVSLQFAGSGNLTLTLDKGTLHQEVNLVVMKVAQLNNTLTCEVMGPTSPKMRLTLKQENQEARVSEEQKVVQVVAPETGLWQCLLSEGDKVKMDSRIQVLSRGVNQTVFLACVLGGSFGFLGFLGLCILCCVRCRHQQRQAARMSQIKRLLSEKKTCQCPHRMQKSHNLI
Chain of UniProt P01732 (P01732 22-235): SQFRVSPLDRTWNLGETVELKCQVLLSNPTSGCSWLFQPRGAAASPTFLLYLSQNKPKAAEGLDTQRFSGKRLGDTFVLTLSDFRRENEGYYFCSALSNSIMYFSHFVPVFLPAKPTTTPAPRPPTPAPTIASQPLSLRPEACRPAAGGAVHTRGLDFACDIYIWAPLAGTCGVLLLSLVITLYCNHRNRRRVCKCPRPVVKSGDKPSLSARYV

## CD8 binding Fab fragment, heavy chain carboxy-terminally fused with a sequential arrangement of two streptavidin binding modules (IBA GmbH, catalogue number 6-8003)
[1]
  percent of PBMC that are CD8+ T-cells bound to the column: 12.1%
  percent of the CD8+ T-cells bound to the column: 66%
[2]
  % CD8+ cells in the CD8-negative wash fraction: 4.83%
[3]
  % CD8+ cells in the biotin eluate fraction: 88.2%
[4]
  percent of CD8+ cells retarded on the column: 77.8%
[5]
  % CD8+ cells in the biotin eluate fraction: 79.8%
[6]
  % CD8+ cells in the CD8-negative wash fraction: 0.005%
[7]
  % cells in the CD8-positive marker of the CD8 histogram, 1. elution fraction immediately with D-Biotin: 67%
  % cells in the CD8-positive marker of the CD8 histogram, 2. elution fraction after D-Biotin and subsequent washing: 76%
  % cells in the CD8-positive marker of the CD8 histogram, wash through fraction: 10%

## anti-CD4 Fab fragment with the wild-type variable domains of the CD4 binding antibody GK1.5 and two streptavidin binding modules at the C-terminus of the heavy chain
[8]
  % CD4+ cells in the CD4-negative wash fraction: 2.78%
[9]
  % CD3+CD4+ cells in the biotin eluate fraction: 80.8%
[10]
  % CD3+CD4+ cells in the CD4-negative wash fraction: 0.977%
[11]
  % CD4+ cells in the biotin eluate fraction: 84.7%

## mutant Fab fragment m13B8.2 (variable domains of the CD4 binding murine antibody 13B8.2 with light chain His91Ala and heavy chain Arg53Ala, human CH1 gamma1 and human kappa constant domains, two streptavidin binding modules at the C-terminus of the heavy chain)
[12]
  % CD4+ cells in the CD4-negative wash fraction: 5.88%
[13]
  % CD4+ cells in the biotin eluate fraction: 99.4%
[14]
  % CD4+ cells in the CD4-negative wash fraction: 0.144%
[15]
  % CD4+ cells in the biotin eluate fraction: 70.4%
